In US20090298079A1 (METHERESIS TRANSLATIONAL RESEARCH, published 2009):
Blank lines part the entries; values can stand above or below the binder they belong to.

Experiments:
[1] = target: T1, IPT (UniProt P08581 563-932); assay: ELISA, IPT in solid phase, MYC-tagged ligand in liquid phase, anti-MYC detection
T1 construct: range 563-932; also called IPT FLAG.his; soluble IPT
Protocol: (§1) Factor purification was performed by immobilized-metal affinity chromatography as previously described in Michieli P. et al. (2002) Nat Biotechnol. 20(5), 488-495. Conversion of pro-HGF into active HGF was performed by incubating purified pro-HGF (maximal concentration 100 ng/μl) with 2-10% FBS (Sigma, St. Louis, Mo.) at 37° C. for 24 hours. Factor conversion was analyzed by Western blotting using anti-HGF antibodies (R&D Systems, Minneapolis, Minn.). Uncleavable HGF subjected to the same incubation with FBS was used as pro-HGF in all assays that compared active HGF with unprocessed HGF. Binding of engineered ligands to soluble receptors was measured by ELISA using FLAG-tagged soluble receptors in solid phase and MYC-tagged engineered ligands in liquid phase. […] Binding data were analyzed and fit using Prism software (Graph Pad Software, San Diego, Calif.).
(§2) To determine the affinity of each Met module for pro-HGF, HGF-α, HGF NK1 and HGF-β and to compare it with that for active HGF, engineered receptors were immobilized in solid phase and exposed to increasing concentrations of MYC-tagged ligands. […] Non-specific binding was determined using the kringle-containing protein angiostatin (AS) also tagged with a MYC epitope—in liquid phase. […] Binding of HGF-β to decoy Met (or to any other Met domain) was too low to be detected in this kind of assay. […]

[2] = target: T2, Sema-PSI (UniProt P08581 25-562); assay: ELISA, receptor in solid phase, MYC-tagged ligand in liquid phase, anti-MYC detection
T2 construct: range 25-562; also called Sema-PSI FLAG.his; SP
Protocol: as §1, with “All engineered receptors and factors were collected from the conditioned medium of lentiviral vector-transduced […] human melanoma cells in the absence of serum. Factor purification” for “Factor purification”, “Minneapolis, Minn.). […] Binding of” for “Minneapolis, Minn.). Uncleavable HGF subjected to the same incubation with FBS was used as pro-HGF in all assays that compared active HGF with unprocessed HGF. Binding of”
as §2

[3] = target: T3, Decoy Met (UniProt P08581 25-932); assay: ELISA, Decoy Met in solid phase, MYC-tagged ligand in liquid phase, anti-MYC detection
T3 construct: range 25-932; Soluble FLAG- and His-tagged receptor, purified from conditioned medium of transduced cells; also called decoy met FLAG.his; DM
Protocol: as §1, §2

fold less tightly than active HGF [1]: 10 fold
binding result [2]: no binding
fold reduced affinity compared to active HGF [3]: 10 fold
B1: HGF NK1 (ligand)
chain: QRKRRNTIHEFKKSAKTTLIKIDPALKIKTKKVNTADQCANRCTRNKGLPFTCKAFVFDKARKQCLWFPFNSMSSGVKKEFGHEFDLYENKDYIRNCIIGKGRSYKGTVSITKSGIKCQPWSSMIPHEHSFLPSSYRGKDLQENYCRNPRGEEGGPWCFTSNPEVRYEVCDIPQEQKLISEEDLNHHHHHHH
notes: range 32-205; also called HGF-NK1 MYC his; monomeric NK1

binding result [2]: no binding
fold reduced affinity compared to active HGF [3]: 4 fold
B2: HGF-α (ligand)
chain: QRKRRNTIHEFKKSAKTTLIKIDPALKIKTKKVNTADQCANRCTRNKGLPFTCKAFVFDKARKQCLWFPFNSMSSGVKKEFGHEFDLYENKDYIRNCIIGKGRSYKGTVSITKSGIKCQPWSSMIPHEHSFLPSSYRGKDLQENYCRNPRGEEGGPWCFTSNPEVRYEVCDIPQCSEVECMTCNGESYRGLMDHTESGKICQRWDHQTPHRHKFLPERYPDKGFDDNYCRNPDGQPRPWCYTLDPHTRWEYCAIKTCADNTMNDTDVPLETTECIQGQGEGYRGTVNTIWNGIPCQRWDSQYPHEHDMTPENFKCKDLRENYCRNPDGSESPWCFTTDPNIRVGYCSQIPNCDMSHGQDCYRGNGKNYMGNLSQTRSGLTCSMWDKNMEDLHRHIFWEPDASKLNENYCRNPDDDAHGPWCYTGNPLIPWDYCPISRCEGDTEQKLISEEDLNHHHHHHH
notes: range 32-473; also called HGF α-chain; HGF-α MYC his
